We go through eight sequences from a protein production outcome set (Wang et al. 2014).

The data set in a line: label from the status in PepcDB records.
Take “MERLTRWLLVMMAMLLAASGLVWFYNSNHLPVKQVSLKGNLVYSDKKTLGSLAKEYIHGNILRTDINGAQEAYRRYPWIASVMVRRRFPDTVEVVLTERKPVARWGDHALVDGEGNVFEARLDRPGMPVFRGAEGTSAEMLRRYDEFSTVLAKQGLGIKEMTYTARSAWIVVLDNGITVRLGRENEMKRLRLFTEAWQHLLRKNKNRLSYVDMRYKDGFSVRYASDGLPEKESEE”: the protein production entry is on record as “failed”.
In the case of “MERNANYALVGAISLALFMGLVIFAVWLAKLSFNRDYDVYDILFVGPVRGLSQGGEVHFNGIKVGEVTRIELDKTDTNRVIARVRVTSDVPIKVDSYATLEPQGITGVNYVQITAGAPNKELLKDTVKTGKVPVIRTQRSALSDLLEGGGTVLTRTIEALDRVNRVLSDRNIKSFGATLTNVQAVTQEMRDRKEILADAQKALQSIDQTAQSITELSNSANTLVDGDAKRTLKELGDAAAELRATAKDARGMVTKLEGPASDFATTGLPQLSSAIVTLQSAAESLDRLVGEVEQNPRGVVGKAPAKEVEVKPLEHHHHHH”, the protein production entry was “not failed”.
With “MERRTILVTGASGFVGGALCRQLATLGSFAIRAASRDLGGASVAGIQAVTVADLSATTDWARALSGVDLVVHAAARVHVMKETASDSLAEFRRVNVDGTLNLARQAAAAGVRRFIFISSIKVNGESSQPGQPLRADDSPAPQDAYGVSKHEAEQGLRQLAAATGMEVVVIRPVLVYGPGVKANFHSMMRWLQRGVPLPFGAVCNRRSLVSLANLVDLVVTCIDHPRAANQTFLASDGDDVSLTQLLRALGLALGRPARLLPVPAGLLRGAVLLIGRRDLAQRLFGTLQVDIEKNRQLLGWYPPCTLEQGLNMTARSFLGARRP”, the protein production result is “failed”.
Turning to “MERSAIQIPAGRIDDAVAKVDGLVGELMQNTGIPGMAVAIVHGGKTLYAKGFGVRDVGKGGGPDNKVDADTVFQLASVSKSVGATVVAHAVTDNVVTWDTPVVSKLPWFALRDPYVTGQVTIADLYSHRSGLPDHAGDLLEDLGYDRRQVLQRLKYLPLAPFRISYAYTNFGVTAAAEAVAAAAGQSWEDLSDEVLYRPLGMGSTSSRFTDFLARPNHAVNHVKVADRWEARYQRDPDAQSPAGGVSSSLNDMTHWLAMVLADGVYNGRRITSPEALLLVYTPQVISRHPVSPRARASFYGYGFNVGVTSSGRTEYSHSGAFGLGAAANFVVLPSEDLAIIALTNAGPIGVPETLTAEFMDLVQYGQVREDWAALYKKAFAPLNELAGSLVGKQSPANPAPSRPLNDYVGVYANDYWGPATVTYHDGQLRLSLGPKNQTFDLTHWDGDTFTFTLSTENALPGSISKATFAGDTLNLEYYDADKLGTFTRLEHHHHHH”, the protein production result is recorded as “failed”.
Take “MERVSERSLSENLRRSDREDGKIIEWEEFDHELTRLWSLSSAMKLATERKQILQPKLESLIQVSTESLRRTNELEEMRQRLEARKLLVDKTSVACKVTEQDVKKKEENLSTEVRSLLVGGTTLSIAKSKLQESNCQLEGESGYAHLKIVTNKLRKRQQFMVSQVSFIYPLKIEAGPSQDQELESFPGGSRLGTKPLSQGSVRILGLPFSMAPFTKMSFFTDKKEVQKSATALGYVAHAVSLIAPYLRVPIRYPLCLGGSKTYIRDYAPYIEPSPSDMSPITTLSQNINFVEFPLFLDGQDTTRAAYAVFLLNKNIEQLLNFVGENSLGPRQVLANLKELIRIIQSPDYIDYL”: the protein production result is “failed”.
With “MESADSGRSDPVKGDDPGPSFVSSPPATPSRYESQKRRDWNTFLQYLKNHKPPLALSRCSGAHVIEFLKYLDQFGKTKVHVAACPYFGHQQPPSPCSCPLKQAWGSLDALIGRLRAAYEENGGRPDSNPFAARAVRIYLREVRESQAKARGIPYEKKKRKRPPTVTTVRVDVASSRQSDGDPCNVGAPSVAEAVPP” the entry was “failed”; with “MESDIEILSEADASMRKLRIFGIDDREDENGRRRIKDVEVYVPIVCGSIAFYLGKKATEYRTHKWTVYVRGATNEDLGVVIKRVIFHLHPSFNNPTRVVDAPPFALSECGWGEFKIDITVFFHTDVCEKKLELSHVLKLNPENAYGPIPKSIKIPVVAESYNEVVFPDPFESFVARVHNHPAIQISNIPDGLNLPPPGAFLF”, “not failed”.
Take “MESFHPLSLLKPSIRGWCIRGRVVRTFLVSLVPSSKVMGLILAEEHGMTIEATVGYKMSDHYKDFINEGEWVTITNFGVVENSGSVRATTHSFKIGFFVDIVVRLTSPLPAIPHYRLASFSSIIDDEIDKSVLVDLVGAIYDVGELINTRPKQNNVDDLTLIFKISDNENRVLECLATKKEALDFDHNYRRYGGGVIVAVLGWWKIDRYFDGPKNVRVCTAGTISTVFPDPDIPESNEIHEI”: the protein production entry was “failed”.
